Measurements: US20230400471A1, “SYSTEMS, COMPOSITIONS AND METHODS OF DETERMINING VIABILITY OF EMBRYOS USING THE SAME” (BioIncept, LLC, priority 2020, published 2023)
“And” between values parts separate entries of the source, which are not always exact repeats. Equal values may be shown once. Read-outs that look alike come from different tables or passages of the source. Values belong to the molecule of their own block, whether it stands above or below them. Ends that are not written are not given here.

Key:
[1] = system: rabbit anti-PIF polyclonal antibody; experiment: PIF colorimetric ELISA using rabbit polyclonal antibody, epitope mapping with PIF peptides of various length; assay type: binding; conditions: for % recovery by Rabbit Polyclonal Antibody: representative value of three repeats
Protocol: (§1) To study PIF peptide and its derivatives of different length for binding to rabbit anti-PIF monoclonal antibody and rabbit anti-PIF polyclonal antibody, PIF peptides of various lengths as listed in Table 2 was synthesized, reconstituted in PBS and two different concentrations were tested by respective colorimetric ELISA following standard protocol. The standards were run in duplicate and the samples were run in triplicate and repeated three times.

[2] = system: rabbit anti-PIF monoclonal antibody; experiment: PIF colorimetric ELISA using rabbit anti-PIF monoclonal antibody, epitope mapping with PIF peptides of various length; assay type: binding; conditions: representative value of three repeats
Protocol: as §1

[3] = molecular target: T1, rabbit monoclonal anti-PIF antibody Clone #30; experiment: competitive ELISA; Clone #30 via goat anti-rabbit; competitor biotin-PIF tracer
T1 chain 1: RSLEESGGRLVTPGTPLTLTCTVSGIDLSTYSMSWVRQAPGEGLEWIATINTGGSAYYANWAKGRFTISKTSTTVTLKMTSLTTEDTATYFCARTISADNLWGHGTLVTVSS
T1 chain 2: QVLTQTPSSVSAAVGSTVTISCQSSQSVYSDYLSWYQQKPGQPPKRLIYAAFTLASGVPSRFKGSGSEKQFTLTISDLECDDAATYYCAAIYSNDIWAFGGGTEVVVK

[4] = molecular target: T1, rabbit monoclonal anti-PIF antibody …; experiment: as above
[5] = molecular target: T1, rabbit monoclonal anti-PIF antibody …; experiment: competitive microarray immunoassay; Clone #30 on goat anti-rabbit spots; competitor A647-sPIF tracer
PIF = experiment: Surface plasmon resonance (SPR), captured Clone #30 with PIF as analyte; assay type: binding, human; conditions: PIF 2-fold concentration series up to 10 μM, duplicate
Source text: (§2) The PIF-binding specificity of the rabbit monoclonal antibody Clone #30 described in Example 1 was quantitatively characterized by surface plasmon resonance (SPR). SPR is an optical technique for detecting the interaction of two different molecules in which one is mobile and one is fixed on a thin gold film. In SPR analysis, affinity-purified ligand polypeptides are immobilized on a sensor chip inserted into the flow chamber of an instrument, such as Biacore 3000 instrument (Biacore, Uppsala, Sweden). Addition of a second polypeptide, the flow-through analyte, to the chamber, results in binding to the immobilized polypeptide ligand, producing a small change in refractive index at the gold surface, which can be quantified with precision. Binding affinities can be obtained from the ratio of rate constants, yielding a straightforward characterization of protein-protein interaction.
(§3) In the work described here, purified rabbit monoclonal antibody Clone #30 was used as the ligand polypeptide and PIF in solution was used as the analyte to evaluate their binding affinity. To immobilize rabbit monoclonal antibody Clone #30 onto a chip, a sheep polyclonal anti-rabbit antibody was used. The sheep anti-rabbit antibody was amine coupled to a CM5 sensor chip using standard NHS/EDC activation. […]

scrambled PIF (SCR) = experiment: Surface plasmon resonance (SPR), captured Clone #30 with scrambled PIF as analyte; assay type: binding; conditions: SCR 2-fold concentration series up to 10 μM, duplicate
Source text: as §2, §3

[6] = molecular target: T2, preimplantation factor (PIF), full-length 15-amino acid peptide (human); experiment: SPR, Clone #30 captured on sheep anti-rabbit CM5 chip, PIF as analyte, global 1:1 fit
[7] = molecular target: T2, preimplantation factor (PIF), …; experiment: SPR: Clone #30 captured (about 2000 RU) on sheep anti-rabbit antibody amine-coupled to a CM5 chip; PIF as analyte in a 2-fold series up to 10 µM; global 1:1 fit
[8] = molecular target: T2, preimplantation factor (PIF), …; experiment: as above; remark: listed apart in the source
[9] = molecular target: T1, rabbit monoclonal anti-PIF antibody …; experiment: ELISA; Clone #30 via goat anti-rabbit; biotin-PIF tracer without unlabeled PIF

% Bound at 1 pg/mL [3]: 96.6%
% Bound at 10 pg/mL [3]: 93.6%
% Bound at 25 pg/mL [3]: 91.1%
% Bound at 250 pg/mL [3]: 81.4%
% Bound at 500 pg/mL [3]: 69.9%
AvgNetRLU at 1 pg/mL [3]: 2.3e+07 RLU
AvgNetRLU at 10 pg/mL [3]: 2.23e+07 RLU
AvgNetRLU at 25 pg/mL [3]: 2.16e+07 RLU
AvgNetRLU at 250 pg/mL [3]: 1.93e+07 RLU
AvgNetRLU at 500 pg/mL [3]: 1.66e+07 RLU
MeanValues (RLU) at 1 pg/mL [3]: 2.82e+07 RLU
MeanValues (RLU) at 10 pg/mL [3]: 2.74e+07 RLU
MeanValues (RLU) at 25 pg/mL [3]: 2.68e+07 RLU
MeanValues (RLU) at 250 pg/mL [3]: 2.45e+07 RLU
MeanValues (RLU) at 500 pg/mL [3]: 2.18e+07 RLU
Values (RLU) at 1 pg/mL [3]: 2.86e+07 RLU and 2.77e+07 RLU
Values (RLU) at 10 pg/mL [3]: 2.79e+07 RLU and 2.7e+07 RLU
Values (RLU) at 25 pg/mL [3]: 2.72e+07 RLU and 2.65e+07 RLU
Values (RLU) at 250 pg/mL [3]: 2.48e+07 RLU and 2.43e+07 RLU
Values (RLU) at 500 pg/mL [3]: 2.23e+07 RLU and 2.13e+07 RLU
% Bound at 1 pg/mL [4]: 93.7%
% Bound at 5 pg/mL [4]: 92.8%
% Bound at 10 pg/mL [4]: 91.7%
% Bound at 25 pg/mL [4]: 90%
% Bound at 50 pg/mL [4]: 87%
% Bound at 100 pg/mL [4]: 89.9%
% Bound at 250 pg/mL [4]: 77.3%
% Bound at 500 pg/mL [4]: 61.1%
% Bound at 1000 pg/mL [4]: 49.8%
% Bound at 2000 pg/mL [4]: 27%
AvgNetRLU at 1 pg/mL [4]: 2.23e+07 RLU
AvgNetRLU at 5 pg/mL [4]: 2.21e+07 RLU
AvgNetRLU at 10 pg/mL [4]: 2.18e+07 RLU
AvgNetRLU at 25 pg/mL [4]: 2.14e+07 RLU
AvgNetRLU at 50 pg/mL [4]: 2.07e+07 RLU
AvgNetRLU at 100 pg/mL [4]: 2.14e+07 RLU
AvgNetRLU at 250 pg/mL [4]: 1.84e+07 RLU
AvgNetRLU at 500 pg/mL [4]: 1.45e+07 RLU
AvgNetRLU at 1000 pg/mL [4]: 1.18e+07 RLU
AvgNetRLU at 2000 pg/mL [4]: 6.41e+06 RLU
MeanValue (RLU) at 1 pg/mL [4]: 2.75e+07 RLU
MeanValue (RLU) at 5 pg/mL [4]: 2.73e+07 RLU
MeanValue (RLU) at 10 pg/mL [4]: 2.7e+07 RLU
MeanValue (RLU) at 25 pg/mL [4]: 2.66e+07 RLU
MeanValue (RLU) at 50 pg/mL [4]: 2.59e+07 RLU
MeanValue (RLU) at 100 pg/mL [4]: 2.66e+07 RLU
MeanValue (RLU) at 250 pg/mL [4]: 2.36e+07 RLU
MeanValue (RLU) at 500 pg/mL [4]: 1.97e+07 RLU
MeanValue (RLU) at 1000 pg/mL [4]: 1.7e+07 RLU
MeanValue (RLU) at 2000 pg/mL [4]: 1.16e+07 RLU
Values (RLU) at 1 pg/mL [4]: 2.77e+07 RLU and 2.73e+07 RLU
Values (RLU) at 5 pg/mL [4]: 2.75e+07 RLU and 2.7e+07 RLU
Values (RLU) at 10 pg/mL [4]: 2.72e+07 RLU and 2.68e+07 RLU
Values (RLU) at 25 pg/mL [4]: 2.66e+07 RLU
Values (RLU) at 50 pg/mL [4]: 2.64e+07 RLU and 2.53e+07 RLU
Values (RLU) at 100 pg/mL [4]: 2.69e+07 RLU and 2.62e+07 RLU
Values (RLU) at 250 pg/mL [4]: 2.37e+07 RLU and 2.34e+07 RLU
Values (RLU) at 500 pg/mL [4]: 2.03e+07 RLU and 1.91e+07 RLU
Values (RLU) at 1000 pg/mL [4]: 1.75e+07 RLU and 1.66e+07 RLU
Values (RLU) at 2000 pg/mL [4]: 1.19e+07 RLU and 1.14e+07 RLU
% B/B0 at 15.625 pg/mL [5]: 122%
% B/B0 at 31.25 pg/mL [5]: 69%
% B/B0 at 62.5 pg/mL [5]: 38%
% B/B0 at 125 pg/mL [5]: 43%
% B/B0 at 250 pg/mL [5]: 19%
Average Mean RFU of bound tracer at 15.625 pg/mL [5]: 10900 RFU
Average Mean RFU of bound tracer at 31.25 pg/mL [5]: 6170 RFU
Average Mean RFU of bound tracer at 62.5 pg/mL [5]: 3350 RFU
Average Mean RFU of bound tracer at 125 pg/mL [5]: 3850 RFU
Average Mean RFU of bound tracer at 250 pg/mL [5]: 1690 RFU
Average Mean RFU of bound tracer at 500 pg/mL [5]: 285 RFU
B1: preimplantation factor (PIF), full-length 15-amino acid peptide (peptide)
peptide: MVRIKPGSANKPSDD
modifications: not checked

Kd [6]: 15 nM
Kd [7]: 10.7 nM
Kd [8]: 17.5 nM
B3: rabbit monoclonal anti-PIF antibody Clone #30 (antibody, V domains shown)
VH: RSLEESGGRLVTPGTPLTLTCTVSGIDLSTYSMSWVRQAPGEGLEWIATINTGGSAYYANWAKGRFTISKTSTTVTLKMTSLTTEDTATYFCARTISADNLWGHGTLVTVSS
VL: QVLTQTPSSVSAAVGSTVTISCQSSQSVYSDYLSWYQQKPGQPPKRLIYAAFTLASGVPSRFKGSGSEKQFTLTISDLECDDAATYYCAAIYSNDIWAFGGGTEVVVK

More lines, now with the values behind:

Molecule: P8-15: PIF peptide, amino acid locations 8-15 (S A N K P S D D) (SANKPSDD) [Clone P8-15]
% recovery by Rabbit Polyclonal Antibody ([1]; spike concentration 100 ng/ml): 0%
% recovery by Rabbit Polyclonal Antibody ([1]; spike concentration 200 ng/ml): 0%
% Recovery by Rabbit Monoclonal Antibody ([2]; spike concentration 100 ng/ml): 0%
% Recovery by Rabbit Monoclonal Antibody ([2]; spike concentration 200 ng/ml): 0%

Molecule: P1-13: PIF peptide, amino acid locations 1-13 (M V R I K P G S A N K P S) (MVRIKPGSANKPS) [Clone P1-13]
recovery by PIF colorimetric ELISA using rabbit polyclonal antibody ([1]; Table 3, spike concentration not given): about 40%
% recovery by Rabbit Polyclonal Antibody ([1]; spike concentration 100 ng/ml): 49.8%
% recovery by Rabbit Polyclonal Antibody ([1]; spike concentration 200 ng/ml): 31.1%
% Recovery by Rabbit Monoclonal Antibody ([2]; spike concentration 100 ng/ml): 0%
% Recovery by Rabbit Monoclonal Antibody ([2]; spike concentration 200 ng/ml): 0%

B2: Clone #30: Rabbit monoclonal antibody against human PIF peptide; heavy chain SEQ ID NO: 2, light chain SEQ ID NO: 7 (antibody, listed as Homo sapiens)
heavy: METGLRWLLLVAVLKGVQCRSLEESGGRLVTPGTPLTLTCTVSGIDLSTYSMSWVRQAPGEGLEWIATINTGGSAYYANWAKGRFTISKTSTTVTLKMTSLTTEDTATYFCARTISADNLWGHGTLVTVSSGQPKAPSVFPLAPCCGDTPSSTVTLGCLVKGYLPEPVTVTWNSGTLTNGVRTFPSVRQSSGLYSLSSVVSVTSSSQPVTCNVAHPATNTKVDKTVAPSTCSKPTCPPPELLGGPSVFIFPPKPKDTLMISRTPEVTCVVVDVSQ
light: MDTRAPTQLLGLLLLWLPGATFAQVLTQTPSSVSAAVGSTVTISCQSSQSVYSDYLSWYQQKPGQPPKRLIYAAFTLASGVPSRFKGSGSEKQFTLTISDLECDDAATYYCAAIYSNDIWAFGGGTEVVVKGDPVAPTVLIFPPSADQVATGTVTIVCVANKYFPDVTVTWEVDGTTQTTGIENSKTPQNSADCTYNLSSTLTLTSTQYNSHKEYTCKVTQGTTSVVQSFNRGDC
binding of PIF to Clone #30 by SPR (PIF): significant and concentration dependent binding response
Kd (PIF; SPR, 1:1 interaction model): ~15 nM
binding of scrambled PIF (SCR) to Clone #30 by SPR (scrambled PIF (SCR)): no binding was observed

B4: biotin labeled PIF (peptide)
peptide: MVRIKPGSANKPSDD
modifications: not fully specified
% Bound, tracer alone (0 pg/mL PIF) [9]: 96%
AvgNetRLU, tracer alone (0 pg/mL PIF) [9]: 2.28e+07 RLU
MeanValue (RLU), tracer alone (0 pg/mL PIF) [9]: 2.8e+07 RLU
Values (RLU), tracer alone (0 pg/mL PIF) [9]: 2.86e+07 RLU and 2.74e+07 RLU
